Biological target: CS1 (human, UniProt Q9NQ25 23-335)
Assay: cell-based or functional assay

B1: elotuzumab (antibody, V domains shown)
VH: EVQLVESGGGLVQPGGSLRLSCAASGFDFSRYWMSWVRQAPGKGLEWIGEINPDSSTINYAPSLKDKFIISRDNAKNSLYLQMNSLRAEDTAVYYCARPDGNYWYFDVWGQGTLVTVSS
VL: DIQMTQSPSSLSASVGDRVTITCKASQDVGIAVAWYQQKPGKVPKLLIYWASTRHTGVPDRFSGSGSGTDFTLTISSLQPEDVATYYCQQYSSYPYTFGQGTKVEIK
expanded autologous NK cell-mediated killing of multiple myeloma cells (51Cr release assay): ≥ 1.7 fold
